No end group written: not given here. *: point of attachment. FITC = O=C1OC2(c3ccc(O)cc3Oc3cc(O)ccc32)c2ccc(NC(=S)*)cc21
B1: N-terminal FITC-labeled BCoR peptide (peptide)
peptide: {FITC}-RSEIISTAPSSWVVPGP
B2: biotinylated Strep II Avi-tagged SIAH1^SBD (domain or fragment)
chain: VANSVLFPCKYASSGCEITLPHTEKADHEELCEFRPYSCPCPGASCKWQGSLDAVMPHLMHQHKSITTLQGEDIVFLATDINLPGAVDWVMMQSCFGFHFMLVLEKQEKYDGHQQFFAIVQLIGTRKQAENFAYRLELNGHRRRLTWEATPRSIHEGIATAIMNSDCLVFDTSIAQLFAENGNLGINVTISMC
modifications: biotin

Experiments:
biotinylated BCL6^5−129 = biotinylated BCL6^5−129 (human, UniProt A5PL18 5-129, biotin); test: FRET or BRET
[1] = biological target: BodipyFL-labeled BCL6^5−360 (human, UniProt A5PL18 5-360, BodipyFL label (site not stated)); test: FRET or BRET

Binder	binding result (biotinylated BCL6^5−129)	Kd [1] [nM]
B1	binds	–
B2	–	200

Reference: publication PMC7816212 (Nature, 2020)
